Results on two substances are retold here after publication PMC10641529, “Selective targeting and clustering of phosphatidylserine lipids by RSV M protein is critical for virus particle production” (The Journal of Biological Chemistry, 2023).

Experiment [1] addresses His6-GCN4-FCT (Histidine tag and GCN4 leucine zipper domain fused to the cytoplasmic tail of the RSV fusion (F) glycoprotein) (not stated | human respiratory syncytial virus). The experiment is described as follows: SDS-PAGE with Western blotting; purified His-GCN4-FCT on SDS-PAGE, detected with an anti-His antibody.
Another experiment addresses T1, RSV M protein (Human respiratory syncytial virus A2, UniProt P0DOE7).
T1 construct: full-length M, recombinant from E. coli Rosetta 2 (pCDF-M); His6 tag cut with 3C protease; dimer
The experiment is described as follows: LUV cosedimentation, SDS-PAGE densitometry. The settings on record: PC:PS (70:30) LUVs; accessible PS 50 μM to 1.5 mM; 8 μM M; 150 mM NaCl, 10 mM Tris-HCl, pH 7.4, 25 °C; acyl chains of PS not told; read-out: Kd,app. Format: binding.

T1 sequence (P0DOE7 whole entry): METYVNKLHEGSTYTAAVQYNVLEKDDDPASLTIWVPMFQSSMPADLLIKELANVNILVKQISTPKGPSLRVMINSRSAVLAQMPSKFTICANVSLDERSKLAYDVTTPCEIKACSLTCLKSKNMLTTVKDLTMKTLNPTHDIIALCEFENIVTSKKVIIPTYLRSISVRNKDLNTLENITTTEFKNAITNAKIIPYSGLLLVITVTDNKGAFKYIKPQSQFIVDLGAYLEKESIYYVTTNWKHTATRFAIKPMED

Substance “His6-GCN4-FCT (Histidine tag and GCN4 leucine zipper domain fused to the cytoplasmic tail of the RSV fusion (F) glycoprotein)” came in with a stoichiometry N in experiment [1] of 3.

Take phosphatidylserine [PS]: the Kd on RSV M protein was 15 to 57 µM.
